Test results as given in patent US20170119861.

How the values were obtained:
[1] = target: Aβ42 fibrils (UniProt P05067)
[2] = target: Aβ42 oligomers (UniProt P05067)
[3] = target: synthetic Aβ42 peptide (UniProt P05067)
[4] = target: protective protein/cathepsin A (PPCA) (UniProt P10619)
Chain of protective protein/cathepsin A (PPCA) (P10619 29-480): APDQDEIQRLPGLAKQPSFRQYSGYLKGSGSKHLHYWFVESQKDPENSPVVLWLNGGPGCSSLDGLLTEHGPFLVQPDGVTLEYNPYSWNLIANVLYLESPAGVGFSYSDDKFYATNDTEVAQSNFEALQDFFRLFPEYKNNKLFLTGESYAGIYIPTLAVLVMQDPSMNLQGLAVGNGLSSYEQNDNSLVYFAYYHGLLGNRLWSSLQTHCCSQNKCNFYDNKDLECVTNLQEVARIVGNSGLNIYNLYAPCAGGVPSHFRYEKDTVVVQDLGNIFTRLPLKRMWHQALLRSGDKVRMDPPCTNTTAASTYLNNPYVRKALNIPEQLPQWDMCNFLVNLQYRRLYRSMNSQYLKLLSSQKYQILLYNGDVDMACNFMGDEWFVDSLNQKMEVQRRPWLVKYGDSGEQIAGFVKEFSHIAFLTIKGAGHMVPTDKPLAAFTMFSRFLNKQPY

Chain of cathepsin D (chain, as listed by the source): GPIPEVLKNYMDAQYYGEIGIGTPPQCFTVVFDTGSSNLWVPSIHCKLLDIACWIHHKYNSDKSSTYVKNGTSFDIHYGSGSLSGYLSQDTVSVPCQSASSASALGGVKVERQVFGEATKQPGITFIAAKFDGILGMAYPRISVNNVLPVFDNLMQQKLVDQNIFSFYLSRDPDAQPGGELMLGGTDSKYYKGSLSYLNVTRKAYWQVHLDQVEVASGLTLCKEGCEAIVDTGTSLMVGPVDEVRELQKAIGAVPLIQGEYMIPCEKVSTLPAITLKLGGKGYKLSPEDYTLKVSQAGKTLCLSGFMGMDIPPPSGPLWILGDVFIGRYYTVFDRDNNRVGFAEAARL
Chain of synthetic Aβ42 peptide (P05067 whole entry, looked up, tested part not stated): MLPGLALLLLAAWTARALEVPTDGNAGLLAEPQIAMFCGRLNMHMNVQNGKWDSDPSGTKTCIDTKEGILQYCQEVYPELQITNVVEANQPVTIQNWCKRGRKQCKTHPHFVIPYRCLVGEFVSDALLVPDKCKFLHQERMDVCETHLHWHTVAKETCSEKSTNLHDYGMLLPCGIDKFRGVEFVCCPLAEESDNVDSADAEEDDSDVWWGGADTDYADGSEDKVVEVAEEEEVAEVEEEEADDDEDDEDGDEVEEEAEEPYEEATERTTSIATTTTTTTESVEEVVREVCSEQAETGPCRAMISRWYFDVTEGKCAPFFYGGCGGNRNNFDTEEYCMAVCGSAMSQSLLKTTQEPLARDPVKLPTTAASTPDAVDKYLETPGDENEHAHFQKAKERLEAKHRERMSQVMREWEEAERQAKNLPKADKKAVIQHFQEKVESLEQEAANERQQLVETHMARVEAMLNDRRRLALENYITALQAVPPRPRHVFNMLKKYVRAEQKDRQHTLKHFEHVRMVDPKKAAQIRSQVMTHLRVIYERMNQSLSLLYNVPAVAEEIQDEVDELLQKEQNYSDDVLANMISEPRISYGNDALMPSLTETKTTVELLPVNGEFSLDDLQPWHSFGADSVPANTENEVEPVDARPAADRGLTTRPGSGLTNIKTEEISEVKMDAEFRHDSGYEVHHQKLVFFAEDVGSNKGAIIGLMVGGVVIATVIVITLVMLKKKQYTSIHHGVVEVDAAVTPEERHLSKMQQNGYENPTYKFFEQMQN
Chain of Aβ42 fibrils (P05067 whole entry, looked up): as the sequence (P05067 whole entry, looked up, tested part not stated) above
Chain of Aβ42 oligomers (P05067 whole entry, looked up): as the sequence (P05067 whole entry, looked up, tested part not stated) above
Chain of cathepsin L (chain, as listed by the source): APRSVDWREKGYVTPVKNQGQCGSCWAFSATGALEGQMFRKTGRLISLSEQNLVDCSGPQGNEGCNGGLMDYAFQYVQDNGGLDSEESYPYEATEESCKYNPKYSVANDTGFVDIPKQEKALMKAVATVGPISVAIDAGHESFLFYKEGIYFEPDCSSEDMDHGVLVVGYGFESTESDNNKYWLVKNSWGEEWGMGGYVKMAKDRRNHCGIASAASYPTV

Substance	western blot (E610) of day 9 Aβ42 fibrils after overnight treatment with 90 ng enzyme [1]	western blot (A11) of day 9 Aβ42 oligomers after overnight treatment with 90 ng enzyme [2]	western blot of Aβ42 treated with cathepsin B [3]	THT assay and western blot of Aβ42 treated with cathepsin D [3]	activation of cathepsin A (enzyme activity) [4]
cathepsin B	resulted in weak reduction/degradation of the fibril smear (line 5 compared to line 2)	did not reveal changes in intensity or size of oligomer band (lines 5, 6)	cathepsin B prevents aggregation of low molecular weight Aβ42 species and degrades Aβ42 monomers in a time dependent manner	–	–
cathepsin D	did not result in visible reduction/degradation of fibril smear or oligomer bands	did not reveal changes in intensity or size of oligomer band (lines 5, 6)	–	strong prevention of aggregation of Aβ42 species, measured by THT; complete elimination Aβ42 monomers	–
cathepsin L	–	–	–	–	Activation of 90 ng cathepsin A by cathepsin L
